Assay results taken from publication PMC3444475.
Read-outs that look alike come from different tables or passages of the source.

Columns and labels:
[1] = target: α5β1 integrin (UniProt P08648); assay: optical biosensor (IAsys); α5β1 integrin immobilised; free LG3 at 3.1×10^−8 M to 3.1×10^−7 M, D3904A DV at 8.0×10^−8 M to 4.0×10^−7 M; global fitting; Kd calculated as koff/kon
[2] = target: integrin α5β1 (Homo sapiens) (UniProt P08648); conditions: cited from earlier work
[3] = target: integrin α2β1 α2 ligand binding domain (Homo sapiens) (UniProt P17301); conditions: cited from earlier work
integrin α2β1 α2 ligand binding domain (Homo sapiens), sequence (P17301 30-1132, chain 1 of 2): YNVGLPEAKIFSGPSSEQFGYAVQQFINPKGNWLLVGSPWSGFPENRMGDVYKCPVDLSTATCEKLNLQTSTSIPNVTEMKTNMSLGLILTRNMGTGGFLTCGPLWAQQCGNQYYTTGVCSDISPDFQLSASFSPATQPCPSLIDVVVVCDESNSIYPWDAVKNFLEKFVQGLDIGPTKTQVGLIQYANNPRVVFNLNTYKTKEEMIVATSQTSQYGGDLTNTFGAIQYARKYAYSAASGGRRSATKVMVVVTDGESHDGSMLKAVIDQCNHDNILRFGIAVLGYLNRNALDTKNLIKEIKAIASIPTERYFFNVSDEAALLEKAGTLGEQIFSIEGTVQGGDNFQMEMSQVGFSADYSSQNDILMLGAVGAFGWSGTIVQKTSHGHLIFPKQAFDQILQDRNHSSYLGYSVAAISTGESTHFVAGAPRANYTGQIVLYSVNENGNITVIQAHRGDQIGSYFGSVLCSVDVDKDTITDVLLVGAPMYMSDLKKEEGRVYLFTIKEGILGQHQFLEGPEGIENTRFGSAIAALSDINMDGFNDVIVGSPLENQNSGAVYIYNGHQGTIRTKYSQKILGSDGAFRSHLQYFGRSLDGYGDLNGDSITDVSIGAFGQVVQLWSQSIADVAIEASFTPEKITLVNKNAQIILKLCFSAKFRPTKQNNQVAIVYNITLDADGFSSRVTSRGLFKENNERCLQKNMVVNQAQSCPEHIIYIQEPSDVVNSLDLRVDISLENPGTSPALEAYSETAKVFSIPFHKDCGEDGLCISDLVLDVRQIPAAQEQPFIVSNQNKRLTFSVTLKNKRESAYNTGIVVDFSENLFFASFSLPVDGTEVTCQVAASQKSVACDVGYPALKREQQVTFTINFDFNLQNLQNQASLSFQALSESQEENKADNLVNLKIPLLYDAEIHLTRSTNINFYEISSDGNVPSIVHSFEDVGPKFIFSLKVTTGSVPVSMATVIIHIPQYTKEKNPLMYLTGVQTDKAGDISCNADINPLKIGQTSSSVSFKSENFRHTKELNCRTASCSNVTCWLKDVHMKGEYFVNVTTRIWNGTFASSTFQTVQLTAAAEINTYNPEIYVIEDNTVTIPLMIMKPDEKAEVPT
integrin α2β1 α2 ligand binding domain (Homo sapiens), sequence (P05556 21-728, chain 2 of 2, further chain): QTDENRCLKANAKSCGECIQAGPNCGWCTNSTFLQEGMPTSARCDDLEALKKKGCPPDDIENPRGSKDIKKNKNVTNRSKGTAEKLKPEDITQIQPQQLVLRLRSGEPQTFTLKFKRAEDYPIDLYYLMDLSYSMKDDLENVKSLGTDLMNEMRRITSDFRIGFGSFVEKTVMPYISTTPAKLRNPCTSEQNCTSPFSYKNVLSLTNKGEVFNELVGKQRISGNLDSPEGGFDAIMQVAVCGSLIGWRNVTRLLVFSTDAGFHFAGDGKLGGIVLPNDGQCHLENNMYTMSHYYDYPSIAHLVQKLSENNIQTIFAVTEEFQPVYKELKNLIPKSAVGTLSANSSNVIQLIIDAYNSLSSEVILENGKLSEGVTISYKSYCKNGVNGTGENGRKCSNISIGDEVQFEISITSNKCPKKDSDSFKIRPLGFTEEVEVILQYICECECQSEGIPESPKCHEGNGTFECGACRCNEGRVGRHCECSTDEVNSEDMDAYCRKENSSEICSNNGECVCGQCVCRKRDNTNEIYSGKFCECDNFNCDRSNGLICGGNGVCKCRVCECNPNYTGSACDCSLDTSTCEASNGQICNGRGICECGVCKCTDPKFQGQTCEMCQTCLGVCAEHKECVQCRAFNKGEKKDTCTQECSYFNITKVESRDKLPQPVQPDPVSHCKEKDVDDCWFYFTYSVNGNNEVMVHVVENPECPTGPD

[4] = target: integrin α2β1 α2 ligand binding domain (Homo sapiens) (UniProt P17301); conditions: cited from earlier work; remark: listed apart in the source

α5β1 integrin, sequence (P08648 42-1049, chain 1 of 2): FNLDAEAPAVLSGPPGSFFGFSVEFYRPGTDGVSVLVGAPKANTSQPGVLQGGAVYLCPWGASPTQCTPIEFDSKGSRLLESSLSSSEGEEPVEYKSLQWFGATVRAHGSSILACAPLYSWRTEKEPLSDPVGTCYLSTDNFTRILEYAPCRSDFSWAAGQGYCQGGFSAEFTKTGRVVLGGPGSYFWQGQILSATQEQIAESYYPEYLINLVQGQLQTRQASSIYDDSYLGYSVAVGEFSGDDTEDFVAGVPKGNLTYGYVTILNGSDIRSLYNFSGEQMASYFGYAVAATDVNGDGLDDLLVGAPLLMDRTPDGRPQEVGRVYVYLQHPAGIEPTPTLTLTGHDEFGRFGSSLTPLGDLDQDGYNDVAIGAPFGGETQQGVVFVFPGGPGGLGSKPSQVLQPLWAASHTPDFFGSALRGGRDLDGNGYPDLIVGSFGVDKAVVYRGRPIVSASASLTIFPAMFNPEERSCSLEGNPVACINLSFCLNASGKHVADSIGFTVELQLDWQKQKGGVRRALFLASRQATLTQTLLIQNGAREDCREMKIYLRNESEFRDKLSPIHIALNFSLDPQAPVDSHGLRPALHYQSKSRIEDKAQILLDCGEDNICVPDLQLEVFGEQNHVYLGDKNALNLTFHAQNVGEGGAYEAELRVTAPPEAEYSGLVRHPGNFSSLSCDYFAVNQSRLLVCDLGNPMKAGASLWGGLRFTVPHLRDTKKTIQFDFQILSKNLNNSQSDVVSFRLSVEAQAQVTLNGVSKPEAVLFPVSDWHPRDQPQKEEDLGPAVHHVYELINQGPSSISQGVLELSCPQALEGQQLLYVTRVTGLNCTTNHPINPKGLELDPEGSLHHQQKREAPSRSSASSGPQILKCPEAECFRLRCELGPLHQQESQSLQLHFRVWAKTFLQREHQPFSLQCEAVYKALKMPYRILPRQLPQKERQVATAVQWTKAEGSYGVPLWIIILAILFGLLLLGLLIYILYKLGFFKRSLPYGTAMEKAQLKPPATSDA
α5β1 integrin, sequence (P05556 21-798, chain 2 of 2, further chain): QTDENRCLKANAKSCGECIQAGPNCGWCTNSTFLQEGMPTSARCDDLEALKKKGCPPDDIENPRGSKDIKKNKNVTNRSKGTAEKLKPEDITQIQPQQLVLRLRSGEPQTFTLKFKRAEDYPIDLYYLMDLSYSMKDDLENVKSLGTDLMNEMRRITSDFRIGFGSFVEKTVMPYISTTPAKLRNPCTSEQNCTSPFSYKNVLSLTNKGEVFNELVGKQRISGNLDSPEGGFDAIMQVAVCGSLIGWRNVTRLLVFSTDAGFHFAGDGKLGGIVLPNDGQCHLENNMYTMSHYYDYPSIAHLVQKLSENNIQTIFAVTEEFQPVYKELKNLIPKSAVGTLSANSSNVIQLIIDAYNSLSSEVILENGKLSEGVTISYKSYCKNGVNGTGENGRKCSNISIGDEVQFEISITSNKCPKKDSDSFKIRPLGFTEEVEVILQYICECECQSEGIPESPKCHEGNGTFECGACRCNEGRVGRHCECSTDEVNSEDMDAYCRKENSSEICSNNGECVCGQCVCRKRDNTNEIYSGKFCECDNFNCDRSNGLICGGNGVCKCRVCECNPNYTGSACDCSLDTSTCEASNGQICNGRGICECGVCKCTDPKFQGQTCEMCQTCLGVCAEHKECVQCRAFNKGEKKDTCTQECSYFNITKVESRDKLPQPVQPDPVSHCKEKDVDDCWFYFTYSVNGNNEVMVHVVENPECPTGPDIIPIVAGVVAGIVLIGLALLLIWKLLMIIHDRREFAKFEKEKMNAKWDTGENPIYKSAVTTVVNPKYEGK
Perlecan domain V Domain V, sequence (P98160 3687-4391): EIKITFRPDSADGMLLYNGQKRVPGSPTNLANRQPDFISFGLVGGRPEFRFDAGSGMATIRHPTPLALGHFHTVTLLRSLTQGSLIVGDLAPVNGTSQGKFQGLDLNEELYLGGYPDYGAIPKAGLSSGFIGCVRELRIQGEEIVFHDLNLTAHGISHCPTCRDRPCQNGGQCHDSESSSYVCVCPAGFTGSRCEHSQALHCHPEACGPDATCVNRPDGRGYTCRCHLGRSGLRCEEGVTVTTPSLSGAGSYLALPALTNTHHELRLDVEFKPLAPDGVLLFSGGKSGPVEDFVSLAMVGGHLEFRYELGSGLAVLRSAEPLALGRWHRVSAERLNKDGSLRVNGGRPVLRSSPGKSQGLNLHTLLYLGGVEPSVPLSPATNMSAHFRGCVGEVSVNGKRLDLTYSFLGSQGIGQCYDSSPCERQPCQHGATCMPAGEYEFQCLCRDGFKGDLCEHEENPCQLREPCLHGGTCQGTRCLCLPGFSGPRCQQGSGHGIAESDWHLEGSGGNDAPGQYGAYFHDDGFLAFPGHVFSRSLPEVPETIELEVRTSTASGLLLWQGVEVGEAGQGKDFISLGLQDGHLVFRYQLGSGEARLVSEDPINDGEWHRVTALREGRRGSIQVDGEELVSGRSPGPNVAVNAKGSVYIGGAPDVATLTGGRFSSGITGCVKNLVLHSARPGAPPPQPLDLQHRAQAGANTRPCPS
Perlecan LG3 LG3, sequence (P98160 4194-4391): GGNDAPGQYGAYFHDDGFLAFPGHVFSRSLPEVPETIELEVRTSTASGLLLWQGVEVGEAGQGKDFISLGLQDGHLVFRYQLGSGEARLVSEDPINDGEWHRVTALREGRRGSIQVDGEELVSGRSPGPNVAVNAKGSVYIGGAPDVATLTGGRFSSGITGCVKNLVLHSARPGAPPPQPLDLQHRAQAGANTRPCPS

D3904A DV (perlecan Domain V with A in place of the D of its DGR sequence) (domain or fragment; other documents disagree on this pair)
Kd [1]: 370 nM
koff [1]: 0.22 s⁻¹
kon [1]: 600000 M⁻¹ s⁻¹

Perlecan domain V Domain V (from UniProt P98160)
Kd [2]: 160 nM
Kd [3]: 80 nM

Perlecan LG3 LG3 (from UniProt P98160)
Kd [4]: 1000 nM
